Experimental data reported in IntAct's records for PubMed 15466887.

B1: Beta-secretase 1 (Homo sapiens), P56817 (parent)
chain: MAQALPWLLLWMGAGVLPAHGTQHGIRLPLRSGLGGAPLGLRLPRETDEEPEEPGRRGSFVEMVDNLRGKSGQGYYVEMTVGSPPQTLNILVDTGSSNFAVGAAPHPFLHRYYQRQLSSTYRDLRKGVYVPYTQGKWEGELGTDLVSIPHGPNVTVRANIAAITESDKFFINGSNWEGILGLAYAEIARPDDSLEPFFDSLVKQTHVPNLFSLQLCGAGFPLNQSEVLASVGGSMIIGGIDHSLYTGSLWYTPIRREWYYEVIIVRVEINGQDLKMDCKEYNYDKSIVDSGTTNLRLPKKVFEAAVKSIKAASSTEKFPDGFWLGEQLVCWQAGTTPWNIFPVISLYLMGEVTNQSFRITILPQQYLRPVEDVATSQDDCYKFAISQSSTGTVMGAVIMEGFYVVFDRARKRIGFAVSACHVHDEFRTAAVEGPFVTLDMEDCGYNIPQTDESTLMTIAYVMAAICALFMLPLCLMVCQWRCLRCLRQQHDDFADDISLLK
partner: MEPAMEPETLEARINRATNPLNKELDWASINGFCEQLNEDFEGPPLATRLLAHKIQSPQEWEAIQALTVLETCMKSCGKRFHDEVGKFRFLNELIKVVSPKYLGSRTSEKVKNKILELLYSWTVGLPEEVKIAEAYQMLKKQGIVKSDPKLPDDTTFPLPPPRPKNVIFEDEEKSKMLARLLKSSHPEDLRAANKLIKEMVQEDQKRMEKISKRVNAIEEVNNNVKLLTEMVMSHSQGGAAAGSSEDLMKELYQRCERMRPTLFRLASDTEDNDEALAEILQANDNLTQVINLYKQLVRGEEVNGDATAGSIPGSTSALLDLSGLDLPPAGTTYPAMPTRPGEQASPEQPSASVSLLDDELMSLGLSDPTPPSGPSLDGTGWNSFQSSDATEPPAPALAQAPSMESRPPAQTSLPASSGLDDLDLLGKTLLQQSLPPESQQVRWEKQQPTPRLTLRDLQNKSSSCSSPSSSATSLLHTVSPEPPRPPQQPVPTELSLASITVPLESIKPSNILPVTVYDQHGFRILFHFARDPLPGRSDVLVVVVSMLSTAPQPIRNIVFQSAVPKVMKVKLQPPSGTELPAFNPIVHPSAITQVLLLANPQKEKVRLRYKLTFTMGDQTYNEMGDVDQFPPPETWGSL

Variants of: B1
Settings: with gga1_human GGA1, Q9UJY5

Row | Variant | effect of a mutation on the interaction
1 | S498D | with no effect
2 | S498A | decreasing interaction strength
